This passage reports EC50 and IC50 results from patent US20230115257A1 (published 2023).

Where “and” joins values, the source holds several entries; their conditions need not be identical. Identical values can stand only once. Like-named read-outs stand apart in the source and are kept apart here.

Holding throughout (assay): ELISA
Assay [1] has as its target T1, SARS-CoV-2 BA.2 spike trimer variant (SARS-CoV-2 Omicron BA.2, UniProt P0DTC2 16-1213).
Assay [2] addresses T2, SARS-CoV-2 B.1.617.2 spike trimer variant (SARS-CoV-2 B.1.617.2 (Delta), UniProt P0DTC2 16-1213).
In assay [3] the target is T1, SARS-CoV-2 BA.2 spike trimer variant. The source holds these as a separate data set.
For assay [4], the target named is T3, SARS-CoV-2 B.1.1.529 spike trimer variant (SARS-CoV-2 B.1.1.529 (Omicron), UniProt P0DTC2 16-1213).
For assay [5], the target named is SARS-CoV-2 Beta (B.1.351) variant prefusion stabilized spike trimer protein (UniProt P0DTC2 14-1213).
The target in assay [6] is T2, SARS-CoV-2 B.1.617.2 spike trimer …. The source holds these as a separate data set.
For assay [7], the target named is T1, SARS-CoV-2 BA.2 spike trimer variant. This is another data set of the same source.
In assay [8] the target is T3, SARS-CoV-2 B.1.1.529 spike trimer …. This is another data set of the same source.
Assay [9] has the same target. The source holds these as a separate data set.
The target in assay [10] is T2, SARS-CoV-2 B.1.617.2 spike trimer …. This is another data set of the same source.

B1: 4-N22-A (antibody, V domains shown)
VH: QVQLQQPGTELVKPGASVKLSCKASGYTFTNYWMYWVKQRPGQGLDWIGNINPSNGGTNYNEKFKSKATLTVDKSSSTAYMQLSSLTSEDSAVYYCARETGNYWGQGTTLTVSS
VL: DILMTQSPSSMSVSLGDTVSISCHASQGISSNIGWLQQKPGKSFKGLIYHGTNLEDGVPSRFSGSGSGADYSLTISSLESEDFADYYCVQYAQFPYTFGGGTKLEIK
Turning to B1, the EC50 (as a rule, the midpoint of the concentration-response curve) in assay [1] was 0.75 nM; in assay [9], 0.48 nM; in assay [10], 0.218 nM and 0.034 µg/mL. Further, the concentration for half-maximal inhibition (IC50) – broadly, the point on the concentration scale where inhibition reaches its midpoint – in assay [2] was 17.5 nM; in assay [3] it was 25.8 nM; in assay [4], 23.4 nM; in assay [5], 14 nM; in assay [6], 2.6 µg/mL and 17.5 nM; in assay [7] it was 25.8 nM. In [8], the IC50 is 23.4 nM.

B2: 4-M3-A (antibody, V domains shown)
VH: EVQLQQSGPELVKPGDSVKISCKASGYSFTGYFMNWVMQSHGKSLEWIGRINPNNGETFYNQKFKGKATLTVDKSSDTAHMELRSLTSEDSAVYYCARGGTGTGWGQGTTLTVSS
VL: DILMTQSPSSMSVSLGDTVSITCHASQGISSNIGWLQQKPGKSFKGLIYYGTNLEDGVPSRFSGSGSGADYSLTISSLESEDLADYYCIQYAQFPYTFGGGTKLEIK
As to B2, the IC50 in assay [2] is 62.1 nM; in assay [5], 10.8 nM; in assay [6], 9.3 µg/mL and 62.1 nM. Besides, the EC50 in [10] is 0.522 nM and 0.081 µg/mL.

B3: 2-O12-A (antibody, V domains shown)
VH: EVQLQQSGPELVKPGASVKISCKASGYTFTDYYMNWVKQSHGKSLEWIGDINSNNGGTTYDQKFKGKATLTVDRSSSTAYMELRSLTSEDSAVYYCARRGDGHFGGFTYWGQGTLVTVSA
VL: not shown
As to B3, the EC50 in assay [1] is 192 nM; in assay [9], 30.1 nM; in assay [10] it was 0.096 µg/mL and 0.625 nM. The IC50 in assay [2] was 28 nM; in [5], 84.3 nM; in [6] it was 4.2 µg/mL and 28 nM.

B4: 10-L24-A (antibody, V domains shown)
VH: EVQLQQSGPELVKPGASVKISCKASGYTFTDYYMNWVKQSHGKSLEWIGDINSNNGGTTYDQKFKGKATLTVDRSSSTAYMELRSLTSEDSAVYYCARRGDGHFGGFTYWGQGTLVTVSA
VL: not shown
Regarding B4, the EC50 in assay [1] was 61.9 nM; in [9], 20.6 nM; in assay [10], 0.063 µg/mL and 0.405 nM. In addition, the IC50 in [2] was 19.5 nM; in assay [3], 97.3 nM; in [6], 2.9 µg/mL and 19.5 nM; in assay [7], 97 nM.

B5: 8-H5-A (antibody, V domains shown)
VH: QVTLKESGPGILQSSQTLSLTCSLSGFSLSTSGMGVSWVRQPSGKGLEWLAHIYWDDDKRYTPSLKSRLTISTDSSRKQVFLKITSVDTADTATYYCARRDLHDYDGWFAYWGQGTLVTVSA
VL: DIVMTQSQKFMSTAVGDRVSVTCKASQNVGTNVAWYQQKPGQSPKALIYSASFRYSGVPDRFSGSGSGTDFTLTISNVQSEDLAEYFCQQYNSYPLTFGSGTKLEIK
Consider B5, for which the EC50 in assay [1] is 1.06 nM; in [9], 0.5 nM; in [10], 0.251 nM and 0.027 µg/mL. Also, the IC50 in [2] was 27.4 nM; in assay [3], 13.8 nM; in assay [4], 10.1 nM; in assay [5] it was 16.8 nM; in [6], 4.1 µg/mL and 27.4 nM; in assay [7], 13.8 nM. The molecule also returned an IC50 in [8] of 10.1 nM.
